According to publication PMC5250619:

Tests used:
Assay in all cases: BLI
[1] = target: CAP256-VRC26.01 Fab (human)
[2] = target: CAP256-VRC26.03 Fab (human)
[3] = target: CAP256-VRC26.10 Fab (human)

BG505.SOSIP.664 soluble HIV-1 Env trimer (from UniProt Q2N0S6 1-860) (complex)
Kd [1]: 680 nM | koff [1]: 0.0071 s⁻¹ | Kd [2]: 64 nM | koff [2]: 0.0041 s⁻¹ | kon [2]: 63000 M⁻¹ s⁻¹ | Kd [3]: 84 nM | koff [3]: 0.0045 s⁻¹ | kon [3]: 54000 M⁻¹ s⁻¹
